Non-standard residues stand in square brackets, D forms with d. No end group written: not given here. 12Ado = NCCCCCCCCCCCC(=O)O; Ahx = NCCCCCC(=O)O
Legend:
[1] = biological target: T1, recombinant human AP-N (Homo sapiens, UniProt P15144); test: AP-N-ectopeptidase activity, Ala-Mca substrate; assay type: biochemical; settings: for inhibitory potency towards hAP-N as compared to Opiorphin-QRFSR native peptide (in words): relative to native peptide
T1 construct: devoid of their respective N-terminal cytosol and transmembrane segment; purchased R&D Systems
Protocol: Formal kinetic analysis was performed for each assay using real-time fluorescence monitoring of specific substrate hydrolysis.
Recombinant human NEP and recombinant human AP-N (devoid of their respective N-terminal cytosol and transmembrane segment) that were purchased from R&D Systems, were used as pure source of peptidase.
FRET is the distance-dependant transfer of energy from a donor fluorophore (Abz=ortho-aminobenzoyl or Mca=7-methoxycoumarin-4-yl-acetyl) to an acceptor fluorophore (DnpOH=2,4-dinitrophenyl or EDDnp=2,4-dinitrophenyl ethylenediamine). • L-alanine-Mca, Ala-Mca, a fluorogenic substrate for measuring aminopeptidase activity was purchased from Sigma.
(§1) According to conditions of initial velocity measurement: the time, pH and temperature of incubation as well as enzyme and substrate concentrations were defined for each assay. Hydrolysis of substrates was measured by real-time monitoring their metabolism rate by the two peptidases in the presence and absence of tested inhibitory compound (concentrations ranging from 1 to 50 μM). These were added to the preincubation medium. The background rate of substrate autolysis representing the fluorescent signal obtained in the absence of enzyme was subtracted to calculate the initial velocities in RFU (Relative Fluorescent Unit)/min.
Measurement of AP-N-Ectopeptidase Activity Using Ala-Mca Substrate.
Using black half-area 96 well microplate the standard reaction consisted of enzyme (4 ng) in 100 mM Tris-HCl pH 7.0 (100 μl final volume).
(§2) Compounds were tested in triplicate at 50 μM final concentration.

[2] = biological target: T2, human NEP (Homo sapiens, UniProt P08473); test: Screening of Opiorphin peptide-derivatives on hNEP (endopeptidase and carboxydipeptidase activities); assay type: biochemical; settings: for inhibitory preference / dual inhibition, human NEP versus human AP-N (in words): hNEP endopeptidase and carboxydipeptidase activities versus hAP-N; for inhibitory potency towards hNEP as compared to Opiorphin-QRFSR native peptide (in words): relative to native peptide; for inhibitory potency towards human NEP (in words): screening, 50 μM final concentration
T2 construct: devoid of their respective N-terminal cytosol and transmembrane segment; purchased R&D Systems
Protocol: as §1
([…] successive measures) by using a fluorimeter microplate reader (monochromator Infinite 200-Tecan) at 320 nm and 420 nm excitation and emission wavelengths, respectively.
Using black half-area 96 well microplate, the standard reaction consisted of enzyme (2.5 ng) in 100 mM Tris-HCl pH 6.5 containing 50 mM NaCl (100 μl final volume). The substrate (4 μM final concentration) was added after preincubation for 10 min and the kinetics of appearance of the fluorescent signal (RFU) was directly analyzed for 40 min at 28° C. (2.3 min-interval successive measures) by using the fluorimeter reader at 320 nm excitation and 420 nm emission wavelengths.
In addition, the intramolecularly quenched fluorogenic peptide, Mca-BK2 (10 μM), was submitted to hydrolysis by 5 ng rhNEP under the same experimental conditions as those described behind.
as §2

[3] = biological target: T3, membrane-bound human NEP expressed by LNCaP epithelial cells (Homo sapiens, UniProt P08473); test: Substance P cleavage by membrane-bound hNEP (human cell membranes); assay type: biochemical; settings: fold increase, same test
T3 construct: endogenous in cells; host or cells: LNCaP epithelial cells (membranes)

[4] = biological target: T4, Recombinant human AP-N (aminopeptidase N, EC 3.4.11.2), devoid of its N-terminal cytosol and transmembrane … (human, UniProt P15144 33-967); test: cell-based or functional assay
[5] = biological target: Recombinant human NEP (neutral endopeptidase, EC 3.4.24.11), devoid of its N-terminal cytosol and … (human, UniProt P08473 52-750); test: cell-based or functional assay
[6] = biological target: T4, Recombinant human AP-N (aminopeptidase …); test: cell-based or functional assay; remark: listed apart in the source

T1 sequence (P15144 33-967 limits assumed): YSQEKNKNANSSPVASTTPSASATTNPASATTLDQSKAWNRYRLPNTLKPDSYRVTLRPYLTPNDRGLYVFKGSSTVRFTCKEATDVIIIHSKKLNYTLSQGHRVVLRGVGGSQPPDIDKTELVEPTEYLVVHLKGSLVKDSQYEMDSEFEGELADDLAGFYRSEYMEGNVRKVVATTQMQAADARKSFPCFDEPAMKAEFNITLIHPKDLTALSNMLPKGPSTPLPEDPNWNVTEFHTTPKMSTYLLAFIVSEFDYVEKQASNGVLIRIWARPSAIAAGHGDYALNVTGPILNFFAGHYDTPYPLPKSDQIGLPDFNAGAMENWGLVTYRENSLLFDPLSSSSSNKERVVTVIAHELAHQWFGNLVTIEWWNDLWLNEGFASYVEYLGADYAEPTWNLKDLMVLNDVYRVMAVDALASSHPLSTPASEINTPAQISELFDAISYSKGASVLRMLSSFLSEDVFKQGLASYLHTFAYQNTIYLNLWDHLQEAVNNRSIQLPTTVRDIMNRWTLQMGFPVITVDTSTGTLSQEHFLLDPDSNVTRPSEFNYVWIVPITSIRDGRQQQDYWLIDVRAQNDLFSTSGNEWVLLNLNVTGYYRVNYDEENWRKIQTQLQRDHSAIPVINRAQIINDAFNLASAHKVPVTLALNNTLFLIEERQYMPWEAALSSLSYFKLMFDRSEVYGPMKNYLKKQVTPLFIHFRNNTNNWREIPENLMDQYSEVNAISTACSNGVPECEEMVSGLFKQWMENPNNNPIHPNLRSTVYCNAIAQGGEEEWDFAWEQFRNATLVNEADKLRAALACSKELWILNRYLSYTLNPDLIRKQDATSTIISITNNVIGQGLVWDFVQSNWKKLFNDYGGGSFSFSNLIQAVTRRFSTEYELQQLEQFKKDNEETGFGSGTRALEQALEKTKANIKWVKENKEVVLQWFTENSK
T4 sequence (P15144 33-967): as the sequence (P15144 33-967 limits assumed) above
T2 sequence (P08473 52-750 limits assumed): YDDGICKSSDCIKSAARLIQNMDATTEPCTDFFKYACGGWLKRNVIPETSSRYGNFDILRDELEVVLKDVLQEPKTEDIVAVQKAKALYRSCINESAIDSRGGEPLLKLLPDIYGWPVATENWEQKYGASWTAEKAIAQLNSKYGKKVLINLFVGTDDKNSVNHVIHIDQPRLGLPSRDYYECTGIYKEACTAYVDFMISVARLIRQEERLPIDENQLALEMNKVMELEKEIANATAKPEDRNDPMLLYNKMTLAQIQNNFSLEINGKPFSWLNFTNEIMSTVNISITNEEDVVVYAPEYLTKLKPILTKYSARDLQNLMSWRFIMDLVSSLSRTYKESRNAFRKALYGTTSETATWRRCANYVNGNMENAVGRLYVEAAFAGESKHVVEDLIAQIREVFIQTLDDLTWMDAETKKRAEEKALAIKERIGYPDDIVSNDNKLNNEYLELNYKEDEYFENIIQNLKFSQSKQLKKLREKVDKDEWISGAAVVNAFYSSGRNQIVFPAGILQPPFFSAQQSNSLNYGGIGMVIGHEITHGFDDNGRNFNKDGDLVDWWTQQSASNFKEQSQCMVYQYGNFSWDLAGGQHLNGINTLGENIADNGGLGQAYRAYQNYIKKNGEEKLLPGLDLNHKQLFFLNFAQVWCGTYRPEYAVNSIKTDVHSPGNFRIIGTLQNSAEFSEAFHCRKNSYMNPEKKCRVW
T3 sequence (P08473 whole entry): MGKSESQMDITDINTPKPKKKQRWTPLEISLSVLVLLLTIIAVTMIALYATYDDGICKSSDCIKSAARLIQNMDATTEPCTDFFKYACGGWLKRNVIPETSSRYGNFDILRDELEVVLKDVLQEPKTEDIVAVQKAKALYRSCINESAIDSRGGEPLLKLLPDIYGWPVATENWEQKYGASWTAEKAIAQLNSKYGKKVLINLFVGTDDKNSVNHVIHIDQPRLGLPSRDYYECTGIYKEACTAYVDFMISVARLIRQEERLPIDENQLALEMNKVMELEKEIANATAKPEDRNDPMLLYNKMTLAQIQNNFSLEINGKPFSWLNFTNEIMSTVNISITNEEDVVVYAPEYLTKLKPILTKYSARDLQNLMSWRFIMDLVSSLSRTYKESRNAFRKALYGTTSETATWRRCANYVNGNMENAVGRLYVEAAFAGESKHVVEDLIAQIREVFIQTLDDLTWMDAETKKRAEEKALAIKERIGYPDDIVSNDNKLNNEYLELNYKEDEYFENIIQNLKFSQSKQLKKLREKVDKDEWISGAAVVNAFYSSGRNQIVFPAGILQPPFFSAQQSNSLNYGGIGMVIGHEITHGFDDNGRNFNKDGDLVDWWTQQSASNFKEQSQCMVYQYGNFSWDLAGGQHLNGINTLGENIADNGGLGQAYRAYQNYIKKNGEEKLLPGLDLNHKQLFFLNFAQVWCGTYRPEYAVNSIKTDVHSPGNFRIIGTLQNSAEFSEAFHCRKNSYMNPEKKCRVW
Chain of Recombinant human NEP (neutral endopeptidase, EC 3.4.24.11), devoid of its N-terminal cytosol and … (P08473 52-750): as the sequence (P08473 52-750 limits assumed) above

Molecule: QRGPR (H-QRGPR-OH)
- inhibitory potency towards hAP-N as compared to Opiorphin-QRFSR native peptide (in words) [1]: equivalent inhibitory potency
- inhibitory preference / dual inhibition, human NEP versus human AP-N (in words) [2]: inhibitory preference for human AP-N
- inhibitory potency towards hNEP as compared to Opiorphin-QRFSR native peptide (in words) [2]: weak inhibitory potency
- inhibitory potency towards human NEP (in words) [2]: weak inhibitory potency

Molecule: dR-dS-dF-dR-dQ ([dR][dS][dF][dR][dQ]) [NH2-dRdSdFdRdQ-COOH]
- inhibitory potency towards human AP-N (in words) ([1]; screening, 50 μM final concentration): did not display significant inhibitory activity
- inhibitory preference / dual inhibition, human NEP versus human AP-N (in words) [2]: preference for AP-N activity
- inhibitory potency towards human NEP (in words) [2]: did not display significant inhibitory activity

Molecule: CCCCCCCC(=O)OC[C@H](NC(=O)[C@H](Cc1ccccc1)NC(=O)[C@H](CCCNC(=N)N)NC(=O)[C@H](CCC(N)=O)NC(=O)CCCCCCNC(=O)[C@@H](N)CS)C(=O)N[C@@H](CCCNC(=N)N)C(=O)O [C-[PE6]-QRFS[O-C8]R, C—(—HN—(CH2)6—CO—)-QRF—S(O-octanoyl)-R]
- increase inhibitory potency compared to Opiorphin native peptide, Substance P test [3]: at least 5 fold

Molecule: N=C(N)NCCC[C@H](NC(=O)[C@H](CO)NC(=O)[C@H](Cc1ccccc1)NC(=O)[C@H](CCCNC(=N)N)NC(=O)[C@H](CCC(N)=O)NC(=O)CCCCCCCCCCCCNC(=O)[C@@H](N)Cc1ccc(O)cc1)C(=O)O [Y-[PE12]QRFSR, Y—(—HN—(CH2)12—CO—)-QRFSR]
- inhibitory preference / dual inhibition, human NEP versus human AP-N (in words) ([2]; listed as NH2-Y(PE12)QRFSR—COOH): potent dual inhibitors
- inhibitory preference / dual inhibition, human NEP versus human AP-N (in words) ([2]; listed as NH2-Y—(C12-polyethylene)QRFSR—COOH): inhibitory preference for human NEP endopeptidase activity
- inhibitory preference / dual inhibition, human NEP versus human AP-N (in words) ([2]; listed as Y—(C12-polyethylene)QRFSR): inhibitory preference for human NEP endopeptidase activity

Molecule: N=C(N)NCCC[C@H](NC(=O)[C@H](CO)NC(=O)[C@H](Cc1ccccc1)NC(=O)[C@H](CCCNC(=N)N)NC(=O)[C@H](CCC(N)=O)NC(=O)[C@@H](N)CS)C(=O)O [CQRFSR]
- reinforced inhibitory potency towards hNEP compared to QRFSR native peptide ([2]; fold increase): 5 fold
- inhibitory preference / dual inhibition, human NEP versus human AP-N (in words) [2]: potent dual inhibitors

Molecule: QRFPR
- inhibitory potency towards hAP-N as compared to Opiorphin-QRFSR native peptide (in words) [1]: equivalent inhibitory potency
- inhibitory preference / dual inhibition, human NEP versus human AP-N (in words) [2]: inhibitory preference for human AP-N
- inhibitory potency towards hNEP as compared to Opiorphin-QRFSR native peptide (in words) [2]: weak inhibitory potency
- inhibitory potency towards human NEP (in words) [2]: weak inhibitory potency

Molecule: N=C(N)NCCC[C@H](NC(=O)[C@H](CO)NC(=O)[C@H](Cc1ccccc1)NC(=O)[C@H](CCCNC(=N)N)NC(=O)[C@H](CCC(N)=O)NC(=O)[C@@H](N)CSSC[C@H](N)C(=O)N[C@@H](CCC(N)=O)C(=O)N[C@@H](CCCNC(=N)N)C(=O)N[C@@H](Cc1ccccc1)C(=O)N[C@@H](CO)C(=O)N[C@@H](CCCNC(=N)N)C(=O)O)C(=O)O [[CQRFSR]2]
- increase inhibitory potency towards hNEP-Endo and CarboxyDi-peptidase activities compared to CQRFSR monomer peptide ([2]; fold increase): at least 2 fold

Molecule: QHNPR
- inhibitory potency towards hAP-N as compared to Opiorphin-QRFSR native peptide (in words) [1]: equivalent inhibitory potency
- inhibitory preference / dual inhibition, human NEP versus human AP-N (in words) [2]: inhibitory preference for human AP-N
- inhibitory potency towards hNEP as compared to Opiorphin-QRFSR native peptide (in words) [2]: weak inhibitory potency
- inhibitory potency towards human NEP (in words) [2]: weak inhibitory potency

Molecule: QRFSK (H-QRFSK-OH)
- inhibitory potency towards hNEP as compared to Opiorphin-QRFSR native peptide (in words) [2]: equivalent inhibitory potency

Molecule: QKFSR
- inhibitory potency towards hNEP as compared to Opiorphin-QRFSR native peptide (in words) [2]: light reduction in inhibitory potency

Molecule: H-C[12Ado]QRFSR-OH [NH2-C-(C12-polyethylene)QRFSR-COOH]
- IC50, µM towards hAP-N (Ala-AMC cleavage) [4]: 0.8 µM

Molecule: H-C[Ahx]QRFSR-OH [NH2-C-(C6-polyethylene)QRFSR-COOH]
- IC50, µM towards hNEP-Endopeptidase (Abz-dR-G-L-EDDnp cleavage) [5]: 40 µM
- IC50, µM towards hAP-N (Ala-AMC cleavage) [4]: 0.8 µM

Molecule: H-QKFSR-OH [NH2-QKFSR-COOH]
- fold decrease in inhibitory potency compared to Opiorphin-QRFSR native peptide [6]: > 10 fold

Molecule: H-QRFSK-OH [NH2-QRFSK-COOH]
- fold decrease in inhibitory potency compared to Opiorphin-QRFSR native peptide [6]: 10 fold

— US8642729B2, “Opiorphin peptide derivatives as potent inhibitors of enkephalin-degrading ectopeptidases” (Institut Pasteur, priority 2008, dated 2014)
